Patent US20230110958A1 (Regeneron, published 2023)

Experiments:
[1] = target: T1, murine IL27 receptor (IL27Ra and gp130) on mouse cells (MC9/STAT3-Luc reporter cells; splenic CD4+ T cells) (mouse, UniProt O70394 25-623; Q00560 23-917); assay: cell-based or functional assay
T1 sequence (looked up) 1: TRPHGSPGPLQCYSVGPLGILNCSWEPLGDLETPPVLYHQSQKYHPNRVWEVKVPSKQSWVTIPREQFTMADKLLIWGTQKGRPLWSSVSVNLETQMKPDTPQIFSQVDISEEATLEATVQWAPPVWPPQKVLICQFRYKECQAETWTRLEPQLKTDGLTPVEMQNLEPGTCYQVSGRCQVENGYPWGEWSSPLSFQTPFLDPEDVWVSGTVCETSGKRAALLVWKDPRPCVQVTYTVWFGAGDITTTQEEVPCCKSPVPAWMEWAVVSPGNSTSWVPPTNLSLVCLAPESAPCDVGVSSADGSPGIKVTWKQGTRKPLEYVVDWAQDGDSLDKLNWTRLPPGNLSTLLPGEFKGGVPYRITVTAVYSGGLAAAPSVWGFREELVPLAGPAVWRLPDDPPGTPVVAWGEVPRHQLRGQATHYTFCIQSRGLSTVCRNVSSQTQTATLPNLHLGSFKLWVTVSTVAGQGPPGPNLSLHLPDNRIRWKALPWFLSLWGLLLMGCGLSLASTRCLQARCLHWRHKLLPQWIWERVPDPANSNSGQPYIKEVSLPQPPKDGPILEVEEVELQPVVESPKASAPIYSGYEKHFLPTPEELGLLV
T1 sequence (looked up) 2: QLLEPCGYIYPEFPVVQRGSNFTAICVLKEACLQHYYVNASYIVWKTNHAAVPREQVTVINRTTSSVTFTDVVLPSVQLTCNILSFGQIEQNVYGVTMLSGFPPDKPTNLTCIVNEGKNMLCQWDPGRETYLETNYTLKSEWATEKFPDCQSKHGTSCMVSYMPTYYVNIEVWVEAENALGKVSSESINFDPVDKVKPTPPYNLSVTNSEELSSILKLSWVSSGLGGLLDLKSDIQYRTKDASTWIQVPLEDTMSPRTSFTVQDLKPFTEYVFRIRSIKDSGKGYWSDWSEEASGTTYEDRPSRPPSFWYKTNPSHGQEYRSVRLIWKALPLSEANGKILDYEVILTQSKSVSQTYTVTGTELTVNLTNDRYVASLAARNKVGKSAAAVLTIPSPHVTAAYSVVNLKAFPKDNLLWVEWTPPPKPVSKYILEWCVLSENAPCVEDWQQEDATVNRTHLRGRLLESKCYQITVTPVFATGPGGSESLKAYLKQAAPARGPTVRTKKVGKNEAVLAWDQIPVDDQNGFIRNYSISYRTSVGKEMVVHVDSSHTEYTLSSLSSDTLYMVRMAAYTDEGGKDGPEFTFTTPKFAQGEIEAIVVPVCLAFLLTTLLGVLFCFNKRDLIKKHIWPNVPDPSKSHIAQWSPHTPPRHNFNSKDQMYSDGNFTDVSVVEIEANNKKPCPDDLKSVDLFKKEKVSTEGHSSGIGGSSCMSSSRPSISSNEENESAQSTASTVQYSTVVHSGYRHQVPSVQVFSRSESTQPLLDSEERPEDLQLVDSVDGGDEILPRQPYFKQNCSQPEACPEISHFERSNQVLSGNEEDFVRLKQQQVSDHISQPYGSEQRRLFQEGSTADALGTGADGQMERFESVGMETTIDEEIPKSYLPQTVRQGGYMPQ

[2] = target: T1, murine IL27 receptor (IL27Ra and gp130) …; assay: cell-based or functional assay; remark: listed apart in the source

B1: IL27M17, Bivalent Fc-p28 (Fc fusion)
chain: ESKYGPPCPPCPAPPVAGPSVFLFPPKPKDTLMISRTPEVTCVVVDVSQEDPEVQFNWYVDGVEVHNAKTKPREEQFNSTYRVVSVLTVLHQDWLNGKEYKCKVSNKGLPSSIEKTISKAKGQPREPQVYTLPPSQEEMTKNQVSLTCLVKGFYPSDIAVEWESNGQPENNYKTTPPVLDSDGSFFLYSRLTVDKSRWQEGNVFSCSVMHEALHNHYTQKSLSLSLGKGGGGSGGGGSGGGGSFPTDPLSLQELRREFTVSLYLARKLLSEVQGYVHSFAESRLPGVNLDLLPLGYHLPNVSLTFQAWHHLSDSERLCFLATTLRPFPAMLGGLGTQGTWTSSEREQLWAMRLDLRDLHRHLRFQVLAAGFKCSKEEEDKEEEEEEEEEEKKLPLGALGGPNQVSSQVSWPQLLYTYQLLHSLELVLSRAVRDLLLLSLPRRPGSAWDS
With B1 the “FOLD INDUCTION, STAT3 luciferase, MC9 cells” value (“FOLD INDUCTION … MC9 cells” for short) [1] was 1.16 fold.

B2: IL27M18, 2:2 complex between IL27M17 (Fc-p28) and EBI3-mmh (Fc fusion)
chain 1: ESKYGPPCPPCPAPPVAGPSVFLFPPKPKDTLMISRTPEVTCVVVDVSQEDPEVQFNWYVDGVEVHNAKTKPREEQFNSTYRVVSVLTVLHQDWLNGKEYKCKVSNKGLPSSIEKTISKAKGQPREPQVYTLPPSQEEMTKNQVSLTCLVKGFYPSDIAVEWESNGQPENNYKTTPPVLDSDGSFFLYSRLTVDKSRWQEGNVFSCSVMHEALHNHYTQKSLSLSLGKGGGGSGGGGSGGGGSFPTDPLSLQELRREFTVSLYLARKLLSEVQGYVHSFAESRLPGVNLDLLPLGYHLPNVSLTFQAWHHLSDSERLCFLATTLRPFPAMLGGLGTQGTWTSSEREQLWAMRLDLRDLHRHLRFQVLAAGFKCSKEEEDKEEEEEEEEEEKKLPLGALGGPNQVSSQVSWPQLLYTYQLLHSLELVLSRAVRDLLLLSLPRRPGSAWDS
chain 2: YTETALVALSQPRVQCHASRYPVAVDCSWTPLQAPNSTRSTSFIATYRLGVATQQQSQPCLQRSPQASRCTIPDVHLFSTVPYMLNVTAVHPGGASSSLLAFVAERIIKPDPPEGVRLRTAGQRLQVLWHPPASWPFPDIFSLKYRLRYRRRGASHFRQVGPIEATTFTLRNSKPHAKYCIQVSAQDLTDYGKPSDWSLPGQVESAPHKPEQKLISEEDLGGEQKLISEEDLHHHHHH
For B2, the “EC50 (M), STAT3 luciferase, MC9 cells” value [1] was 2.36e-10 M and the “FOLD INDUCTION … MC9 cells” value [1] was 2.86 fold.

B3: IL27M23, monovalent Fc x EB13-p28 (Y202A, Q203A) (Fc fusion)
chain 1: ESKYGPPCPPCPAPPVAGPSVFLFPPKPKDTLMISRTPEVTCVVVDVSQEDPEVQFNWYVDGVEVHNAKTKPREEQFNSTYRVVSVLTVLHQDWLNGKEYKCKVSNKGLPSSIEKTISKAKGQPREPQVYTLPPSQEEMTKNQVSLWCLVKGFYPSDIAVEWESNGQPENNYKTTPPVLDSDGSFFLYSRLTVDKSRWQEGNVFSCSVMHEALHNHYTQKSLSLSLGKGGGGSGGGGSGGGGSYTETALVALSQPRVQCHASRYPVAVDCSWTPLQAPNSTRSTSFIATYRLGVATQQQSQPCLQRSPQASRCTIPDVHLFSTVPYMLNVTAVHPGGASSSLLAFVAERIIKPDPPEGVRLRTAGQRLQVLWHPPASWPFPDIFSLKYRLRYRRRGASHFRQVGPIEATTFTLRNSKPHAKYCIQVSAQDLTDYGKPSDWSLPGQVESAPHKPGGGGSGGGGSGGGGSGGGGSFPTDPLSLQELRREFTVSLYLARKLLSEVQGYVHSFAESRLPGVNLDLLPLGYHLPNVSLTFQAWHHLSDSERLCFLATTLRPFPAMLGGLGTQGTWTSSEREQLWAMRLDLRDLHRHLRFQVLAAGFKCSKEEEDKEEEEEEEEEEKKLPLGALGGPNQVSSQVSWPQLLYTAALLHSLELVLSRAVRDLLLLSLPRRPGSAWDS
chain 2: ESKYGPPCPPCPAPPVAGPSVFLFPPKPKDTLMISRTPEVTCVVVDVSQEDPEVQFNWYVDGVEVHNAKTKPREEQFNSTYRVVSVLTVLHQDWLNGKEYKCKVSNKGLPSSIEKTISKAKGQPREPQVYTLPPSQEEMTKNQVSLSCAVKGFYPSDIAVEWESNGQPENNYKTTPPVLDSDGSFFLVSRLTVDKSRWQEGNVFSCSVMHEALHNRFTQKSLSLSPGK
With B3 the “EC50 (M), STAT3 luciferase, MC9/STAT3-Luc cells” value [2] was 1.98e-11 M and the “FOLD INDUCTION, STAT3 luciferase, MC9/STAT3-Luc cells” value [2] was 5.34 fold.

B4: IL27M25, monovalent Fc x EB13-p28 (L138A, R145A, H146A) (Fc fusion)
chain 1: ESKYGPPCPPCPAPPVAGPSVFLFPPKPKDTLMISRTPEVTCVVVDVSQEDPEVQFNWYVDGVEVHNAKTKPREEQFNSTYRVVSVLTVLHQDWLNGKEYKCKVSNKGLPSSIEKTISKAKGQPREPQVYTLPPSQEEMTKNQVSLWCLVKGFYPSDIAVEWESNGQPENNYKTTPPVLDSDGSFFLYSRLTVDKSRWQEGNVFSCSVMHEALHNHYTQKSLSLSLGKGGGGSGGGGSGGGGSYTETALVALSQPRVQCHASRYPVAVDCSWTPLQAPNSTRSTSFIATYRLGVATQQQSQPCLQRSPQASRCTIPDVHLFSTVPYMLNVTAVHPGGASSSLLAFVAERIIKPDPPEGVRLRTAGQRLQVLWHPPASWPFPDIFSLKYRLRYRRRGASHFRQVGPIEATTFTLRNSKPHAKYCIQVSAQDLTDYGKPSDWSLPGQVESAPHKPGGGGSGGGGSGGGGSGGGGSFPTDPLSLQELRREFTVSLYLARKLLSEVQGYVHSFAESRLPGVNLDLLPLGYHLPNVSLTFQAWHHLSDSERLCFLATTLRPFPAMLGGLGTQGTWTSSEREQLWAMRADLRDLHAALRFQVLAAGFKCSKEEEDKEEEEEEEEEEKKLPLGALGGPNQVSSQVSWPQLLYTYQLLHSLELVLSRAVRDLLLLSLPRRPGSAWDS
chain 2: ESKYGPPCPPCPAPPVAGPSVFLFPPKPKDTLMISRTPEVTCVVVDVSQEDPEVQFNWYVDGVEVHNAKTKPREEQFNSTYRVVSVLTVLHQDWLNGKEYKCKVSNKGLPSSIEKTISKAKGQPREPQVYTLPPSQEEMTKNQVSLSCAVKGFYPSDIAVEWESNGQPENNYKTTPPVLDSDGSFFLVSRLTVDKSRWQEGNVFSCSVMHEALHNRFTQKSLSLSPGK
B4 was tested, and the “FOLD INDUCTION, STAT3 luciferase, MC9/STAT3-Luc cells” value [2] was 4.35 fold.

B5: IL27M14, 2:2 complex between IL27M13 (p28-Fc) and EBI3-mmh (Fc fusion)
chain 1: FPTDPLSLQELRREFTVSLYLARKLLSEVQGYVHSFAESRLPGVNLDLLPLGYHLPNVSLTFQAWHHLSDSERLCFLATTLRPFPAMLGGLGTQGTWTSSEREQLWAMRLDLRDLHRHLRFQVLAAGFKCSKEEEDKEEEEEEEEEEKKLPLGALGGPNQVSSQVSWPQLLYTYQLLHSLELVLSRAVRDLLLLSLPRRPGSAWDSGGGGSGGGGSGGGGSESKYGPPCPPCPAPPVAGPSVFLFPPKPKDTLMISRTPEVTCVVVDVSQEDPEVQFNWYVDGVEVHNAKTKPREEQFNSTYRVVSVLTVLHQDWLNGKEYKCKVSNKGLPSSIEKTISKAKGQPREPQVYTLPPSQEEMTKNQVSLTCLVKGFYPSDIAVEWESNGQPENNYKTTPPVLDSDGSFFLYSRLTVDKSRWQEGNVFSCSVMHEALHNHYTQKSLSLSLGK
chain 2: YTETALVALSQPRVQCHASRYPVAVDCSWTPLQAPNSTRSTSFIATYRLGVATQQQSQPCLQRSPQASRCTIPDVHLFSTVPYMLNVTAVHPGGASSSLLAFVAERIIKPDPPEGVRLRTAGQRLQVLWHPPASWPFPDIFSLKYRLRYRRRGASHFRQVGPIEATTFTLRNSKPHAKYCIQVSAQDLTDYGKPSDWSLPGQVESAPHKPEQKLISEEDLGGEQKLISEEDLHHHHHH
For B5, the “EC50 (M), STAT3 luciferase, MC9 cells” value [1] was 2.81e-10 M and the “FOLD INDUCTION … MC9 cells” value [1] was 2.71 fold.
